Reference: publication PMC6364133, “Selectivity of Dietary Phenolics for Inhibition of Human Monoamine Oxidases A and B” (BioMed Research International, 2019)
Several values for one entry are separate records, joined by “and”; a condition that tells them apart may be missing. Identical values can stand only once.

Columns and labels:
Type in all cases: biochemical, human
[1] = substrate: NCCC(=O)c1ccccc1N; experiment: Kynuramine oxidative deamination kinetics (saturation, optimization) with MAO-A; conditions: other: kynuramine 2-500 μM, 15 min, mean ± SEM; pH 7.4; 37.0 °C
Procedure: (§1) The optimized incubation time and human recombinant MAO concentration were selected in the linear range from the time-dependent and MAO concentration-dependent studies (Supplemental Data). Briefly, samples were prepared in potassium phosphate buffer (100 mM, pH 7.4) with a final concentration of MAO in the reaction solution of 0.01 mg/mL, incubated at 37°C for 15 min. Saturation of kynuramine metabolism with MAO-A/B was carried out at concentrations of 2, 5, 10, 25, 50, 100, 250, 500 μM. The enzymatic reactions (200μL) were stopped by 2 N NaOH (75 μL) followed with 70% perchloric acid (25 μL). The samples were vortexed and centrifuged for 5 min at 10,000×g. The supernatant was analyzed by HPLC as described above.
(§2) GraphPad Prism 5 was applied to fit a Michaelis-Menten model to the data to obtain the Km values in the saturation experiments. In the screening experiments, significant differences between control and treated group were determined by a one-way ANOVA followed by Dunnett's posttest (p < 0.05). […] The maximum single doses are from published sources. The relevant GI concentration is the lesser of either solubility or the concentration after a single dose. […]
(§3) Kynuramine (10 µM) was incubated with MAO-A (0.01 mg/mL) in 200 µL potassium phosphate buffer (100 mM, pH 7.4) for 10, 20, 30, 40, and 60 min. The formation of 4-hydroxyquinoline was analyzed after the enzymatic reaction. […]

[2] = substrate: NCCC(=O)c1ccccc1N; experiment: Inhibition mechanism studies (competition, time dependence) with MAO-A; conditions: other: competition study control, kynuramine 2-450 μM
[3] = substrate: NCCC(=O)c1ccccc1N; experiment: Kynuramine oxidative deamination kinetics (saturation, optimization) with MAO-B; conditions: other: kynuramine 2-500 μM, 15 min, mean ± SEM; pH 7.4; 37.0 °C
Procedure: as §1, §2, §3

[4] = substrate: NCCC(=O)c1ccccc1N; experiment: Inhibition mechanism studies (competition, time dependence) with MAO-B; conditions: other: competition study control, kynuramine 2-450 μM

B1: human recombinant MAO-A (Homo sapiens) (protein)
chain: MENQEKASIAGHMFDVVVIGGGISGLSAAKLLTEYGVSVLVLEARDRVGGRTYTIRNEHVDYVDVGGAYVGPTQNRILRLSKELGIETYKVNVSERLVQYVKGKTYPFRGAFPPVWNPIAYLDYNNLWRTIDNMGKEIPTDAPWEAQHADKWDKMTMKELIDKICWTKTARRFAYLFVNINVTSEPHEVSALWFLWYVKQCGGTTRIFSVTNGGQERKFVGGSGQVSERIMDLLGDQVKLNHPVTHVDQSSDNIIIETLNHEHYECKYVINAIPPTLTAKIHFRPELPAERNQLIQRLPMGAVIKCMMYYKEAFWKKKDYCGCMIIEDEDAPISITLDDTKPDGSLPAIMGFILARKADRLAKLHKEIRKKKICELYAKVLGSQEALHPVHYEEKNWCEEQYSGGCYTAYFPPGIMTQYGRVIRQPVGRIFFAGTETATKWSGYMEGAVEAGERAAREVLNGLGKVTEKDIWVQEPESKDVPAVEITHTFWERNLPSVSGLLKIIGFSTSVTALGFVLYKYKLLPRS
notes: purchased BD Biosciences (San Jose, CA) or Corning Discovery Labware (Woburn, MA)
Km [1]: 23.1 ± 0.8 µM and 23 µM | Vmax [1]: 10.2 ± 0.2 nmol/min/mg

B2: MAO-A (Homo sapiens) (protein)
chain: MENQEKASIAGHMFDVVVIGGGISGLSAAKLLTEYGVSVLVLEARDRVGGRTYTIRNEHVDYVDVGGAYVGPTQNRILRLSKELGIETYKVNVSERLVQYVKGKTYPFRGAFPPVWNPIAYLDYNNLWRTIDNMGKEIPTDAPWEAQHADKWDKMTMKELIDKICWTKTARRFAYLFVNINVTSEPHEVSALWFLWYVKQCGGTTRIFSVTNGGQERKFVGGSGQVSERIMDLLGDQVKLNHPVTHVDQSSDNIIIETLNHEHYECKYVINAIPPTLTAKIHFRPELPAERNQLIQRLPMGAVIKCMMYYKEAFWKKKDYCGCMIIEDEDAPISITLDDTKPDGSLPAIMGFILARKADRLAKLHKEIRKKKICELYAKVLGSQEALHPVHYEEKNWCEEQYSGGCYTAYFPPGIMTQYGRVIRQPVGRIFFAGTETATKWSGYMEGAVEAGERAAREVLNGLGKVTEKDIWVQEPESKDVPAVEITHTFWERNLPSVSGLLKIIGFSTSVTALGFVLYKYKLLPRS
notes: as for B1
Km [2]: 8.46 ± 1.56 µM | Vmax [2]: 17.4 ± 0.7 nmol/min/mg protein

B3: human recombinant MAO-B (Homo sapiens) (protein)
chain: MSNKCDVVVVGGGISGMAAAKLLHDSGLNVVVLEARDRVGGRTYTLRNQKVKYVDLGGSYVGPTQNRILRLAKELGLETYKVNEVERLIHHVKGKSYPFRGPFPPVWNPITYLDHNNFWRTMDDMGREIPSDAPWKAPLAEEWDNMTMKELLDKLCWTESAKQLATLFVNLCVTAETHEVSALWFLWYVKQCGGTTRIISTTNGGQERKFVGGSGQVSERIMDLLGDRVKLERPVIYIDQTRENVLVETLNHEMYEAKYVISAIPPTLGMKIHFNPPLPMMRNQMITRVPLGSVIKCIVYYKEPFWRKKDYCGTMIIDGEEAPVAYTLDDTKPEGNYAAIMGFILAHKARKLARLTKEERLKKLCELYAKVLGSLEALEPVHYEEKNWCEEQYSGGCYTTYFPPGILTQYGRVLRQPVDRIYFAGTETATHWSGYMEGAVEAGERAAREILHAMGKIPEDEIWQSEPESVDVPAQPITTTFLERHLPSVPGLLRLIGLTTIFSATALGFLAHKRGLLVRV
notes: as for B1
Km [3]: 18.0 ± 2.3 µM | Vmax [3]: 7.35 ± 0.69 nmol/min/mg

B4: MAO-B (Homo sapiens) (protein)
chain: MSNKCDVVVVGGGISGMAAAKLLHDSGLNVVVLEARDRVGGRTYTLRNQKVKYVDLGGSYVGPTQNRILRLAKELGLETYKVNEVERLIHHVKGKSYPFRGPFPPVWNPITYLDHNNFWRTMDDMGREIPSDAPWKAPLAEEWDNMTMKELLDKLCWTESAKQLATLFVNLCVTAETHEVSALWFLWYVKQCGGTTRIISTTNGGQERKFVGGSGQVSERIMDLLGDRVKLERPVIYIDQTRENVLVETLNHEMYEAKYVISAIPPTLGMKIHFNPPLPMMRNQMITRVPLGSVIKCIVYYKEPFWRKKDYCGTMIIDGEEAPVAYTLDDTKPEGNYAAIMGFILAHKARKLARLTKEERLKKLCELYAKVLGSLEALEPVHYEEKNWCEEQYSGGCYTTYFPPGILTQYGRVLRQPVDRIYFAGTETATHWSGYMEGAVEAGERAAREILHAMGKIPEDEIWQSEPESVDVPAQPITTTFLERHLPSVPGLLRLIGLTTIFSATALGFLAHKRGLLVRV
notes: as for B1
Km [4]: 14.4 ± 1.2 µM | Vmax [4]: 3.44 ± 0.07 nmol/min/mg protein
